A short description of the series: label from the status in PepcDB records.

The source of these data is a protein production outcome set (Wang et al. 2014).

For “MSRKYLIRITELERLLSEQAEALRQKDQQLSLVEETEAFLRSALARAEEKIEEEEREIEHLRAQIEKLRRMLFGTRSEKLQREVEQAEAQLKQREQESDRYSGREDDPQVPRQLRQSRHRRPLPAHLPREIHRLEPEESCCPECGSELDYLGEVSAEQLELVSSALKVIRTVRVKKACTKCDCIVEAPAPSRPIERGIAGSGLLARVLTGKYCEHLPLYRQSEIFARQGIELSRALLSNWVDACCQLMTLLNDTLYRYVMNTRKVHTDDTPVKVLAPGRKKAKTGRIWTYVRDDRNAGSSEPPAVWFAYSPDRQGKHPVQHLRPFRGILQADAFSGYDRLFSAEREGGALTEVACWAHARRKIHDVYISSKSATAEEALKRISELYAIEDEIRGLPESERLAVRQQRSKVLLTSLHEWMVEKNGTLSKKSRLGEACSYVLNQWDALCYYSDDGLAEADNNAAERALRAVCLGKKNFMFFGSDHGGERGALLYGLIGTCRLNGIDPEAYLRHILSVLPEWPSNRVDELLPWNVVLTNK”, the protein production result is “failed”.
The entry for “MSRLEGKIAIVTGASSGIGRAAAALCTRGGKGRRYRPQRECTCGAYTRSPEGAVRRQRLPATWATKPCEALVELAVRRFGGLDTAFNNAGARCDGRDLVARRRLARDARYQSDAPSWRRNIRFRQLRHWAAVRSPTSSFVGHTAGFAGVAPYAASKAGDRTGAGAGGRTRRARHSRERAAAAAPTRLPISRTCRERRPRRAVSEGLHALKRIARPEEIAEAALYLAGRCLRDRRCAAGRRRRFGDEGV” is “not failed”; for “MSRNPEVLWAQRSDKVYLTVALPDAKDISVKCEPQGLFSFSALGAQGERFEFSLELYGKIMTEYRKNVGLRNIIFSIQKEERSWWTRLLKSEEKPAPYIKVDWNKWCDEDEEVNSETASDDESAFVNQDSESSDDDGLLYLPDLEKARNK” it is “not failed”.
For “MSRNYKEDQTNEVEALDSIYCGDMEILATEPHHKFQIPIATEEYSSEEPEKGLACKLVFTFTATYPDGAPVVEIEEPENFEDMFETRLLEHLQKTIEENLGMEMIFSLVSSAQEWLNERWDEHKFHQEELREQKLREIEEEERKKFEGTRVTVESFLKWKLEFEESTGIAAKREKNNVSKKQTGRELFMCDNTLNDSDIKFLLEAGENIENVKIDETLFQDIGELDLDDDDDEDWVPGADDDDD” the value was “failed”.
On to “MSRPDDIDVRPIAEAETADWIRALNTGFLRSPEVSEREVADRSSYLVPARTLGAFDNGRCVATFRSFPQELTAVGGASVPADAISNVTVTATHRRRGLLTRMMAQDLAAAKERGDVVATLIAAEYPIYGRYGFGAATHSTEWTIDVPRTGLDPRWSGPGDGGRIDLVDGEDVRKAGPELHERLRRTQPGAVSRDERWWQVHTGVVRLDRSPWTEPFYAVYRSASGEVEGLVSYECDDHWGDAKQPQNTAKVNWLIATTPAAERALWHYLCSIDWITKVRTGWRAPDDLLPHFLPDPRAARVTTHADWLWVRILDVVRALEARTYDGSGTLVLDVVDRHGLAGGRYRLTVGPDGAVCEPTTRDAGLTLDVGELAALWLGDASAVRLAALGRVREQQEGAASVADALLRTSGRPWCPDMF”, for which the protein production entry was “not failed”.
For “MSRQIFYMPFSLRFLFLLIIITIFGLGSLFLGVIVSAFMKIGFSAEDALLILFLSLLGSGINIPLTTLKSDIPVVKDNYIKFFGISYRIPTRQIVRNETLLAINVGGAVIPVLISAYLLTQFPSSLLLAGAGVAIVAIVTHSVARPIKGVGIATPALIPPLTSVLSAVLLTSIVHIPGCPAEPCRVIIAYTGGVLGTLIGADLLNLGKIKNLGAPVASIGGAGTFDGIFLSGFIALLLI” the value was “failed”.
For “MSRSAFTALLLSCVLLALSMPARADDLPYRFGLGKADITGEAAEVGMMGYSSLEQKTAGIHMRQWARAFVIEEAASGRRLVYVNTDLGMIFQAVHLKVLARLKAKYPGVYDENNVMLAATHTHSGPGGFSHYAMYNLSVLGFQEKTFNAIVDGIVRSIERAQARLQPGRLFYGSGELRNANRNRSLLSHLKNPDIVGYEDGIDPQMSVLSFVDANGELAGAISWFPVHSTSMTNANHLISPDNKGYASYHWEHDVSRKSGFVAAFAQTNAGNLSPNLNLKPGSGPFDNEFDNTREIGLRQFAKAYEIAGQAQEEVLGELDSRFRFVDFTRLPIRPEFTDGQPRQLCTAAIGTSLAAGSTEDGPGPLGLEEGNNPFLSALGGLLTGVPPQELVQCQAEKTILADTGNKKPYPWTPTVLPIQMFRIGQLELLGAPAEFTVMAGVRIRRAVQAASEAAGIRHVVFNGYANAYASYVTTREEYAAQEYEGGSTLYGPWTQAAYQQLFVDMAVALRERLPVETSAIAPDLSCCQMNFQTGVVADDPYIGKSFGDVLQQPRESYRIGDKVTVAFVTGHPKNDLRTEKTFLEVVNIGKDGKQTPETVATDNDWDTQYRWERVGISASKATISWSIPPGTEPGHYYIRHYGNAKNFWTQKISEIGGSTRSFEVLGTTP” the value was “failed”.
For “MSRSALSFAVFLAVVLSILGGMHAYLWLRLVRDPGLPEPWRRTGTVLLALLAVAIPVGMFSVRLASGWAARWLPVAAFTWLGLAFILFCAVAAIDLARLSAQLALFMGDWLRQVPDPPADPGRRLFVARAVAGGAVIAAGGSAALAFRSATGPAEIHEVAVRLDRLPPALSGLTIAQISDLHVGPAIREREVRRVVEQTNALRPDVVAITGDLVDGSVRELGHAVAELARLRARHGVFFVTGNHEYYSGVDAWVAELQRLGIRVLRNERVTVGDAGASIDLAGVDDWSSGQFGNGHGMNLPRALDGRDPDRSLVLLAHQPRAIGEAVRAGVELQLSGHTHGGQIFPFNLLVRAAYPYVKGLYPHAEGSAHGQIFVSRGTGYWGPPMRLGSPPEIARIVLT” the value was “failed”; for “MSSDAIETIETYLRPGAWVEDAAGPLYVRLRKRIEQGIDSGLLAKSAPLPAEREIASLTGLSRVTVRRAMQELVDRGIIVQRQGSGSFVADAAPRVEQSLSHLTSFTEDMERRGLNVTSEWLTRGVFIPSPEEVMALALSSGEQVARVARLRRAEGRPMAIERASLPTDILPDPELVSSSLYAVLERDGNRPVRALQRISAVNLGAEDAALLGVEPGTAGLRIIRTSYLPNRRVIEYTRSLYRADAYDFVAELRLGNS”, “failed”; for “MSSDDAWTAAALPDQSGRRVVVTGANSGLGFEATRAFARAGAHVVMACRSTERGEDARDDIVAELPGASLTVHELDLAALDSVAAFADWFTAEFDSLHVLANNAGVMAIPRSETADGFETQFGVNHLGHVALTAGLLGVLRRTSGETRVVTQSSGAHRRGRIDFEDLQHEAEYGKWEAYSQSKLANLLFAYELDRRLRAASASVTSVACHPGYAATNLQLRGPQAAGSRLRLLAMRAANALVGQSAEQGAWPLLYAATNPSIDGGEYIGPGGVLNMRGHPERQQPSARSRDEDTARRLWTVSADRTGVDFDLPDPA”, “failed”.
As for “MSSERLIYLPLGGAGEIGMNAYVYGYGKPDAERLIVVDMGVAFPDMDGSPGVDLILPDITWLQERRDRIEAVFVTHAHEDHVGAVAHTYEKLGAPVYARAFTANIARRKMAEHGHPEDAVHTVSPWPETVSAGPFKVSFLPISHSIPESSAMVIDTPEGRVIHSGDFKLDETPLVGEAFDPELWAEVSKEGVKALICDSTNVFSQHPGRSEASVGPEITNLVQSAEGMVVATTFASNVARVKTLADAGVRAGRSIVLMGRAMRRMIEAAAETGVLQDFPSVVSPEDARSIPRENLMLLVTGSQGERRAASAQLARGKYQGMEMKEGDLFPFSSKTIPGNEKGVIRIINAFSELGVDVVDDSSGLYHVSGHANRPDLERLSEIVNPQVVIPMHGEHRHLREHVKIAEQNGRTGVLAVNGMMVDLSGNQPKIAEYVETGRTYLDGTVQIGALDGVVRDRIRMALNGHVVVTLIVDEDDEPLGDPWCELKGLPETGRSKASLVDVLEADLGQWLGRADPKTMRDDDKLNEGLRRVVRQTSQDEIGKKPEVSVIVSRLS”, the protein production result is reported as “failed”.
Consider “MSSFFTGKDDSAVEELLSQAKDQYVLEQVAKINCSGFTDDTALPTNPETRLRRLKSLPVSRTDSVSSSPKKLLSHSNSMASHPEKKYRGNVSSVSSFSIQVGKSCPLDSSVEETQIFSKTKRNQSVKSRGGLGESSGSKRIGSSSSRFSCGNVSSTGSSSSRFSREGNISTATKTLKLPC”, for which the protein production entry is reported as “not failed”.
As for “MSSKPLLTLQELAAQNILRNEALAISALQYLPELFLPQLLKQAYDGNHLKVLRAIVSSWPFPRLPLGALKKRTPYLETQLQVVLEEVDKLLIQEVHPREYKLEVLDLRSVGQNYLNVWPGAMDDWLPKTTQTDPCCSKTVMTQPLKVLVDLQLNNRGQSRLFSYLVQWSDRRKGLLQLYCNKLQIWSPSQQNYRKLSQKVNLDYVETLGLHSSCSPSFLLNFAPYLRQMRNLRKLALSNIREEHIISPEKRRCIITRFTLQILKLESLQKLHLDAVCFLEGHLDQLLGSVKTSLDELAVTHCNLSVSEWSHFSEFPCVSQLQQLNLENVRLTGLSPEPLQVLLVKAGPTLVALDLEDCHLEDGQLYAILPALSKCFKLTKFSFYGNQISMLAMKDLLHHTASLIHLRLELYPVPQDSYDYHGTPLMQRMQQHCDELMNLLKTFRNPGRVFFGTDRCDQCCNRYIYNKTIMCNCRRSY”, the protein production entry is recorded as “failed”.
The entry for “MSSKQHCVKLNDGHLIPALGFGTYKPKEVPKSKSLEAACLALDVGYRHVDTAYAYQVEEEIGQAIQSKIKAGVVKREDLFVTTKLWCTCFRPELVKPALEKSLKKLQLDYVDLYIMHYPVPMKSGDNDFPVNEQGKSLLDTVDFCDTWERLEECKDAGLVKSIGVSNFNHRQLERILNKPGLKYKPVCNQVECHLYLNQRKLLDYCESKDIVLVAYGALGTQRYKEWVDQNSPVLLNDPVLCDVAKKNKRSPALIALRYLIQRGIVPLAQSFKENEMRENLQVFGFQLSPEDMKTLDGLNKNFRYLPAEFLVDHPEYPFVEEY” is “not failed”; for “MSSLRHRRYVLGGLLAAIGVLAAAVLWNVVGTVFFAVTVAYVLYPARQRLVNRGVPRRVASGLLTAAAFLTVVVLLAPIAWTIFRQRGAILEFLNNLPDELPVEAFGFVVTIDVADLVDTTADTLQSIAISLAADAIFLALQLLMFALVLYGLLLRPNAVGRAAFRVTPSPYHDILVALHRRIAGTLYALYVIQAATAVITFPLALIVFYLLGYPDVFVLAVLAALLQFIPIVGPGMLAAGLAGHDVLVGMPHRAVGVIILGPLFVGLLPDLLVRPRLAASKAKLPASLYFVGFVGGVLTVGVIGIIAGPLVVALLVEAVNLLSERNQSAA” it is “failed”; for “MSSMNANAENSESKPKSGNDPLDHEGGDSSAASEDPNKSKTVSSDDDLSETNKEKEEEDCEECWLSRYLKKGDCKDAFIEVDHCREVKDDGTNCRDARLKLITCMYTNVDYYGPFLAMQKEMRTQSLKELEQGEEAAAAAKKKEEEEETKGK” it is “failed”.
For “MSSPTRTSAKDRLSGVWALKGYKREWLRHDIVAGAALFALLVPAGMAYAQAAGLPPVTGLYATVVPLLVYAIVGPSRILVLGPDSALAPMIAAAIVPLAAGSSEKSVALAGLLAVLIGVIMLAGSALKLGTITGLLSKPIRLGYLNGIALLVLLSQLPAFFGIEADGDIWEKLAKVTTGVLGGGVNVTALLLGSGSLALIWIPRLLKWKVPGVLLAVVGSCVVTAVWGLNDDVKVTGVLPQGLPMPALGGIGWADALTLLPAAAGIALMAFADTGVLSQTLAAKEGKKVSGNREMAALGAANAATGLLGGFPISGSTSRTPVAVDAGAKSQMTGVVGSVLVLAFMLLAPGVTEYLPSATLAAVVIAAAIALADPAGVKRLLSLSRSESVVMLAAFLGVLTVGVLQGIVVAIALALLDFVRRAWDPYRTELGAEEGLPGYHDLERHPDGERIPGLLILRFDAPLFFGNGQVLAAFVREQLDEAPDETTDAITHVILAAEPITGIDTTALDDLVTLDEWLASKGVDLVFAELKGPVKDKLIHLGTAARFTPDHFFPTVGAAVRTLKNE” the value was “failed”.
